# Measured values from patent US11497788B2, “Supramolecular glycosaminoglycans” (Northwestern University, priority 2015, dated 2022).
# Tests used:
# [1] = target: T1, BMP-2 (Homo sapiens, UniProt P12643); assay: Confocal fluorescence imaging of Cy5-labeled BMP-2 with PA nanofibers; format: binding; settings: co-assembled with Cy3-PA 5 mol %; mixed 24 h
# T1 construct: purchased Medtronic Sofamor Danek (Minneapolis, Minn.)
# T1 sequence (P12643 283-396): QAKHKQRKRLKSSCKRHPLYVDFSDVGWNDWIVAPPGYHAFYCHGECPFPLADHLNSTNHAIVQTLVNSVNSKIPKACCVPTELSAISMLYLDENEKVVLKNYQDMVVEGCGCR
# Method: Confocal Fluorescence Imaging: PA 1, PA 4, and Cy3-PA were dissolved to 6.6 mM in saline with 6.6 mM CaCl2, pH 7.2. […] Following, PA solutions were mixed with Cy5-BMP-2 (57 μM) at 10:1 vol. ratio to yield [PA]=6 mM and [BMP-2]=5.2 μM, and incubated overnight. For confocal imaging, 20 μl of the solutions containing Cy5-labeled protein and Cy3-Labeled PA nanofibers were coverslipped in IMMU-MOUNT (Termo Scientific) and visualized using a Nikon A1R confocal laser-scanning microscope with GaAsP detectors.
# [2] = test system: ALP and Osteocalcin (OCN) gene expression in C2C12 cells; assay: Quantitative RT-PCR of ALP and Osteocalcin in C2C12 cells; format: cell-based, mouse; settings: relative to heparin or PA nanofibers displaying uncharged GlcNAc; day 3
# Method: (§1) C2C12 Cell Culture: C2C12 mouse myoblasts (ATCC) were maintained in Dulbecco's Modified Eagle's Medium with high glucose and L-glutamine (DMEM, ATCC), supplemented with 100 U/mL of penicillin and 100 μg/mL streptomycin (P/S, Life Technologies) and 10% heat inactivated FBS (Life Technologies), and passaged at 80-90% confluence. Media was changed every 2 days. Passages 3 to 8 were used for experiments. Cells were grown at 37° C., 5% CO2 in a humidified atmosphere. Cells were detached following a 3 minute incubation at 37° C. with 0.05% Trypsin-EDTA (Life Technologies), then resuspended in DMEM (10% FBS). Unless stated otherwise, cells were seeded at 75,000 cells/mL (400 μL/well in a 48-well plate), and allowed to attach for a minimum of 3 hours prior to experiments.
# (§2) C2C12 Osteoblast Differentiation: PA samples were thermally annealed as described for Cryo-TEM. […] Cells were cultured for 3 days without changing the media, and osteoblast differentiation was assessed.
# Quantitative RT-PCR: The gene expression levels were determined by real-time, reverse-transcription-PCR using an iQ5 Real-Time PCR Detection System (Bio-Rad). […] To confirm the specificity of the amplified products, melting curves were performed by cooling samples at 55° C. for 30 s and then increasing the temperature to 94° C. at 0.5° C./sec with continuous fluorescence measurement. […]
# [3] = target: T2, noggin (Mus musculus, UniProt P97466); assay: Noggin inhibition of BMP-2 activity in C2C12 cells; format: cell-based, murine; settings: during osteoblast differentiation of C2C12
# T2 construct: purchased PeproTech; host or cells: E. coli
# T2 sequence (P97466 with tags, fused parts or gaps): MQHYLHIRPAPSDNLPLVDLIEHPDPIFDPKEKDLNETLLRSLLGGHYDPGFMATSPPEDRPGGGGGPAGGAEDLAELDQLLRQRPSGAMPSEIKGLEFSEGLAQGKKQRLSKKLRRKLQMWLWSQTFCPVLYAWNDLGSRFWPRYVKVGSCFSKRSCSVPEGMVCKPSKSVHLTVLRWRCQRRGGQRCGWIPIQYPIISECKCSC
# Method: as §1
# as §2, with “Cryo-TEM. PA solutions were spun down, pipetted for homogeneous mixing, then diluted to 1 mM with DMEM (no FBS).” for “Cryo-TEM.”
# Alkaline Phosphatase Activity: Alkaline phosphatase (ALP) activity was measured as a marker of osteoblast differentiation (ref. 38; incorporated by reference in its entirety). […] The ALP activity was assessed by reading the OD at 630 nm with Cytation3 microplate reader (BioTek). […]
# [4] = Zeta potential measurements; format: physicochemical
# Method: Zeta Potential Measurements: Zeta (ζ) potential was measured using a Malvern Zetasizer Nano ZS (n=3). PA samples were thermally annealed as described for Cryo-TEM. Following, PAs were diluted to 0.5 mM in DMEM. PA solutions were water-bath sonicated for 1 min prior to zeta potential measurement. Background reading from DMEM alone was subtracted from the final measurements.
substance,measurement,setting,value
"3,4,6S-GlcNAc PA (VVAAEEK) [PA 1, glycosylated peptide amphiphile: Alkyne PA click-conjugated with trisulfated monosaccharide 1]",colocalization of Cy5-labeled BMP-2 with PA nanofibers,[1],strong colocalization
same,ALP mRNA expression,[2],higher expressions
same,osteocalcin mRNA expression,[2],higher expressions
same,protection of BMP-2 from noggin antagonist,[3],successfully protected
same,zeta potential / net charge of nanofibers,[4],highest net negative charge
